Literature values, collected in article PMC12818570.

Biological target: His57 (UniProt position 57, ILPVTHTEISP)
Experiment: electrophysiology (solid-supported membrane electrophysiology, SSME, on isolated lysosomes)
Details: 90 mM NaCl + 50 mM NaCl or KCl, 5 mM MgCl2; 30 mM HEPES, 30 mM MES, titrated with HCl or NaOH; channel in lysosomal membrane, pH equilibrated symmetrically on both sides, no applied voltage

**Q.** For “Transmembrane protein 175 (TMEM175), endosomal/lysosomal cation channel (Homo sapiens)”, which pKa is on record?
**A.** The pKa was 7.0 ± 0.1.
